Legend:
[1] = target: T1, RING1B (human, UniProt Q99496 1-336); experiment: MST; UbcH5c labelled with NT-547 at 100 nM; RING1B (from 80 uM at 2x) or RING1B-PCGF2 (from 38 uM at 2x) in 16 serial dilutions; HEPES 50 mM pH 8, NaCl 75 mM, DTT 1 mM, Tween 0.05%; Monolith NT.115, LED 20%, MST power 40%; conditions: both partners purified
T1 construct: RING1B, human, catalytic E3 ligase subunit of PRC1; called full length in the discussion; primers run from the second codon to the stop codon; no cleavage of the tag is described; also called strep-tagged RING1B; catalytic subunit RING1B; source: Sf21 insect cells (MultiBac baculovirus), alone or co-expressed with other PRC1 subunits; in lysate and purified (strep-tactin resin, two S200 SEC …)
T1 sequence (looked up): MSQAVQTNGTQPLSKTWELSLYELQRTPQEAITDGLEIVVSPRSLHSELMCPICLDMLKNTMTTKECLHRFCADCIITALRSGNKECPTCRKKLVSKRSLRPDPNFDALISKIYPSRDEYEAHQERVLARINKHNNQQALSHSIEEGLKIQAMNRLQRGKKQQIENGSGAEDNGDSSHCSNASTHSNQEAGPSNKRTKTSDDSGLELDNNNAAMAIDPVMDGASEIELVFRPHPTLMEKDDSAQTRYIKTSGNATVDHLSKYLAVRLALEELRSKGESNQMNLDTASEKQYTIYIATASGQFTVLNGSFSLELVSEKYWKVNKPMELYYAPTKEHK

[2] = target: T2, RING1B-PCGF2 heterodimer (human, UniProt Q99496 1-336; P35227 1-344); experiment: as above; conditions: both partners purified
T2 construct: RING1B, human, full length; the same chain as m1; PCGF2 (aka Mel18), human, full length; the same chain as m2; Pre-formed complex titrated as one molecule against UbcH5c; also called RING1B-PCGF2 subcomplex; source: Sf21 insect cells (MultiBac co-expression), purified (strep-tactin resin, two S200 SEC steps)
T2 sequence (looked up) 1: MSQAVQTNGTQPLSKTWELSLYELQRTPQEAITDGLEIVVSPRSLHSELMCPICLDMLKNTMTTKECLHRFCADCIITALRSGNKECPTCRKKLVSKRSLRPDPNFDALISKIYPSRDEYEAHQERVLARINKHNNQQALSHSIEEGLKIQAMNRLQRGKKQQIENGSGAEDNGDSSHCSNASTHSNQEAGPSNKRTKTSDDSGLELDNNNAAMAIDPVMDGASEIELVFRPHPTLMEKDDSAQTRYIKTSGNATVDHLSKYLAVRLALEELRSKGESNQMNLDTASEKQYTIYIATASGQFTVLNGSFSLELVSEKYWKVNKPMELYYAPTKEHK
T2 sequence (looked up) 2: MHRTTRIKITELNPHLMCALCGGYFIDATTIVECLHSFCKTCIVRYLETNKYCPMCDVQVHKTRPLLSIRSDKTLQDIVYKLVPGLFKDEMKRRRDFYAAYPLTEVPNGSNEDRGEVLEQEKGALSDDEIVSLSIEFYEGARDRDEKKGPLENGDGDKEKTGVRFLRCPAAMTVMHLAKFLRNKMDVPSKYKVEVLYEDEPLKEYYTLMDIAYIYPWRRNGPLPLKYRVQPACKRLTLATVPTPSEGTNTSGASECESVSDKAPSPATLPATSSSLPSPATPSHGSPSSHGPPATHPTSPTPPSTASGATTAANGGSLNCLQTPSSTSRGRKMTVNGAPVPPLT

B1: UbcH5c (enzyme)
chain: not shown
modifications: NT-547 fluorescent dye on Cys85
notes: UbcH5c, ubiquitin-conjugating E2 enzyme; also called UbcH5c E2 enzyme; E2 enzyme; source: E. coli Rosetta (DE3), purified (GST resin, 3C cleavage, Ni-NTA flow-through, S200 SEC)
Kd [1]: 0.23 ± 0.08 µM
Kd [2]: 4.1 ± 1 µM

Reference: PMC6771824, “Topology and enzymatic properties of a canonical Polycomb repressive complex 1 isoform” (Febs Letters, 2019)
